We go through five molecules from US20090110692A1 (UNIVERSITY OF IOWA RESEARCH FOUNDATION, published 2009).

Experiment [1] addresses T1, TLR4 stably expressed on HEK293 cells (HEK/TLR4) (UniProt O00206 24-839, limits assumed).
T1 construct: whole, on cells; also called Toll-like receptor 4; cellular TLR4
Nature of the experiment: competition: excess free MD-2 against ^3H-LOS:MD-2 on HEK/TLR4 cells, liquid scintillation.

The target in experiment [2] is T1, TLR4 stably expressed on HEK293 cells …. Nature of the experiment: inferred from intermediate inhibition of HEK/TLR4 activation by LOS:MD-2 (IL-8).
Experiment [3] shares this target. Nature of the experiment: cell association of radiolabelled complex with HEK/TLR4 cells, overnight 37 C, liquid scintillation (FIG. 3).
Experiment [4] shares this target. Nature of the experiment: cell-based or functional assay.
The target is the same in experiment [5]. Nature of the experiment: inferred from dose-dependent inhibition of HEK/TLR4 activation by the wt complex (IL-8).

T1 sequence (O00206 24-839 limits assumed): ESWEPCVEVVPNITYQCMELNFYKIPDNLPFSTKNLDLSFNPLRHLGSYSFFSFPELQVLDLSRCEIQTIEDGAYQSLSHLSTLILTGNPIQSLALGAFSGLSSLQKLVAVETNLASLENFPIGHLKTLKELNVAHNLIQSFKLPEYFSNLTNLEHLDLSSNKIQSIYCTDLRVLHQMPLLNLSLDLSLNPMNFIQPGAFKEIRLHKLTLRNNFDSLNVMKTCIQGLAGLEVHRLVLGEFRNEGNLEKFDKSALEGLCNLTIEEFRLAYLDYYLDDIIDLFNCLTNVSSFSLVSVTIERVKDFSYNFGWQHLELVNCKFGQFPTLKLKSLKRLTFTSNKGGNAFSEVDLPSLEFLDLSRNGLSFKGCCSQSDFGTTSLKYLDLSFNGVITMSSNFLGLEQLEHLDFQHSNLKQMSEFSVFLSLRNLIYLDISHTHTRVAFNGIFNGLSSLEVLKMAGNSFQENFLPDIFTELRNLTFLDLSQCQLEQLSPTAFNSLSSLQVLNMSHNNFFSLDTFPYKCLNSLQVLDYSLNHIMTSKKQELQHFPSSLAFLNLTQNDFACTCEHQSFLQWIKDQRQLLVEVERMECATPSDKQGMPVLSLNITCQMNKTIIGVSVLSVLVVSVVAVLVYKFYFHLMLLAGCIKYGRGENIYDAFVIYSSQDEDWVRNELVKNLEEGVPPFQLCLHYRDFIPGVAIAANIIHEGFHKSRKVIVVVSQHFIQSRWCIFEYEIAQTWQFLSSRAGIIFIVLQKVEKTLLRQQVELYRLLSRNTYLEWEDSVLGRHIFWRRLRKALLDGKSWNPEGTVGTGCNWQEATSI

B1: soluble recombinant wild-type MD-2-His6 (not complexed to endotoxin), in dialyzed conditioned insect cell medium (other, human)
chain: QKQYWVCNSSDASISYTYCDKMQYPISINVNPCIELKRSKGLLHIFYIPRRDLKQLYFNLYITVNTMNLPKRKEVICRGSDDDYSFCRALKGETVNTTISFSFKGIKFSKGKYKCVVEAISGSPEEMLFCLEFVILHQPNSNHHHHHH
notes: Used as unpurified conditioned medium (about 10 ng MD-2 per microliter after concentration); also called wt MD-2; rMD-2
Regarding B1, in experiment [1], the binding result is “binds”.

B2: soluble recombinant C95Y mutant MD-2-His6, in dialyzed conditioned insect cell medium (other, human)
chain: QKQYWVCNSSDASISYTYCDKMQYPISINVNPCIELKRSKGLLHIFYIPRRDLKQLYFNLYITVNTMNLPKRKEVIYRGSDDDYSFCRALKGETVNTTISFSFKGIKFSKGKYKCVVEAISGSPEEMLFCLEFVILHQPNSNHHHHHH
notes: also called C95Y MD-2
In the case of B2, in experiment [2], the binding result was “binds”.

B3: LOS:sCD14 complex (monomeric complex of N. meningitidis lipooligosaccharide with soluble CD14, Mr ~60,000) (other)
chain: TTPEPCELDDEDFRCVCNFSEPQPDWSEAFQCVSAVEVEIHAGGLNLEPFLKRVDADADPRQYADTVKALRVRRLTVGAAQVPAQLLVGALRVLAYSRLKELTLEDLKITGTMPPLPLEATGLALSSLRLRNVSWATGRSWLAELQQWLKPGLKVLSIAQAHSPAFSCEQVRAFPALTSLDLSDNPGLGERGLMAALCPHKFPAIQNLALRNTGMETPTGVCAALAAAGVQPHSLDLSHNSLRATVNPSAPRCMWSSALNSLNLSFAGLEQVPKGLPAKLRVLDLSCNRLNRAPQPDELPEVDNLTLDGNPFLVPGTALPHEGSMNSGVVPACARSTLSVGVSGTLVL
notes: also called ^3H-LOS:sCD14; endotoxin:sCD14
On to B3, for which the binding result in experiment [3] was “no binding (tested: 0.75 ng/ml ^3H-LOS)”.

B4: E:MD-2 K125A.F126A (monomeric complex of wild-type endotoxin with MD-2 mutant K125A.F126A) (ligand)
chain: QKQYWVCNSSDASISYTYCDKMQYPISINVNPCIELKRSKGLLHIFYIPRRDLKQLYFNLYITVNTMNLPKRKEVICRGSDDDYSFCRALKGETVNTTISFSFKGIAASKGKYKCVVEAISGSPEEMLFCLEFVILHQPNSN
For the molecule B4, in experiment [4], the “activation (IL-8) of HEK/TLR4 cells relative to wt E:MD-2” value is ~10%.

B5: E:MD-2 (F126A) (monomeric complex of wild-type LOS with MD-2 mutant F126A) (ligand)
chain: QKQYWVCNSSDASISYTYCDKMQYPISINVNPCIELKRSKGLLHIFYIPRRDLKQLYFNLYITVNTMNLPKRKEVICRGSDDDYSFCRALKGETVNTTISFSFKGIKASKGKYKCVVEAISGSPEEMLFCLEFVILHQPNSN
notes: also called LOS:MD-2 (F126A); F126A MD-2 mutant
For B5, in experiment [5], the binding result is recorded as “binds”.
